In patent US7838288B2, “Modulators of odorant receptors” (Duke University, priority 2004, dated 2010):

What was measured:
[1] = target: T1, mouse odorant receptor OREG (Mus musculus, UniProt Q920P2); assay: CRE-luciferase reporter gene assay, OREG; format: cell-based; settings: 293T cells; compared to OR alone or control pCI
T1 construct: expressed in transfected cells; host or cells: 293T cells (with or without co-transfected REEP1/RTP1/RTP2) and Hana3A cells (293T stably expressing mouse REEP1, RTP1, RTP2, Galpha-olf)
T1 sequence (Q920P2 1-313): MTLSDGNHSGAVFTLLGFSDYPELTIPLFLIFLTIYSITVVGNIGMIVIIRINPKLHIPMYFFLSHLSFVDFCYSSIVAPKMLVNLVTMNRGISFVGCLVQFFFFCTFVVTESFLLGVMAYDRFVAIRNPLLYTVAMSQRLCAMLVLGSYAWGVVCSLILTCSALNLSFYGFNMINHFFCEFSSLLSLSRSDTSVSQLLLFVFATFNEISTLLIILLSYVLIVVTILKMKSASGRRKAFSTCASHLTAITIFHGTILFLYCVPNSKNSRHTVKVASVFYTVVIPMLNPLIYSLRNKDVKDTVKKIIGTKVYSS
Text: Poor odorant evoked signaling activity in heterologous cell culture systems expressing ORs has been attributed to the poor cell surface expression of ORs. The identification of REEP and/or RTP allowed a direct assessment of this issue. A luciferase reporter gene assay was employed in which a cAMP responsive element (CRE) mediated luciferase gene expression (see FIG. 8A). Because OR activation leads to an increase in cAMP, activation of the mouse odorant receptor OREG by its ligand eugenol was measured in the presence and absence of REEP and/or RTP (see, e.g., Kajiya, K., et al. (2001) J Neurosci 21, 6018-6025; Touhara, K., et al., (1999) Proc Natl Acad Sci USA 96, 4040-4045; each herein incorporated by reference in their entireties). As reported previously, eugenol increased levels of OREG dependent luciferase activity (see, e.g., Katada, S., et al. (2003) Biochem Biophys Res Commun 305, 964-969; herein incorporated by reference in its entirety).
To facilitate analysis of odorant-OR interactions, 293T cell lines were established which stably express REEP1, RTP1, RTP2 and Gαolf, the G protein alpha subunit that couples to OR (see, e.g., Belluscio, L., et al. (1998) Neuron 20, 69-81; Jones, D. T., and Reed, R. R. (1989). Science 244, 790-795; each herein incorporated by reference in their entireties). To establish such cells, linearized expression vectors containing mouse REEP1, RTP1, RTP2 and Gαolf ORFs were transfected into 293T cells with PGK-Pac (puromycin resistant gene) (see, e.g., Watanabe, S., et al. (1995) Biochem Biophys Res Commun 213, 130-137; herein incorporated by reference in its entirety). […] Enhanced cell-surface expression was observed when OREG or other ORs were transfected in Hana3A cells and immunostained (see FIG. 10). […] Expression of Gαolf alone in 293T cells had little or no effect on OR activation using this assay.
Dual-Glo system (Promega) for luciferase assay was used. CRE-Luciferase (Stratagene) was used to measure the receptor activities. Renilla luciferase driven by constitutively active SV40 promoter (pRL-SV40: Promega) was used as an internal control. Cells were plated on poly-D-lysine coated 96 well plates (BIOCOAT, Beckton Dickinson). After 8 hours (for experiments shown in FIGS. 8B and 8C) or 12 hours (for experiments shown in FIG. 8D and FIG. 11) after transfection, the medium was replaced with CD293 chemically defined medium (Invitrogen) and the plates were incubated for one hour at 37 degrees C. The medium was replaced with 50 ul of odorant solutions dissolved in CD293 and incubated for 10 hours (for experiments shown in FIGS. 8B and 8C) or 4 hours (for experiments shown in FIG. 8D and FIG. 11) at 37 degrees C. The manufacture's protocol for measuring luciferase and Renilla luciferase activities was followed. Luminescence was measured using Wallac Victor 1420 (Perkin-Elmer). Normalized luciferase activity was calculated as [Luc (N)-Luc (0)]/RL (N), where Luc (N)=Luminescent count of a certain well, Luc (0)=Luminescent count without odorant for each OR, and RL (N)=Luminescent count of Renilla Luciferase of each well. For cAMP assays, cells were plated onto 24-well plate. […]. Prism software (Graphpad) was used for data analysis.

MOR203-1 [2] = assay: Living-cell staining of cell-surface MOR203-1; format: cell-based, mouse; settings: accessory protein co-transfected in 293T cells
Text: After hypothesizing that mammalian ORs require accessory protein(s) for functional cell surface expression, a search was instituted for detecting such molecule(s). Long-SAGE (serial analysis of gene expression) libraries (see, e.g., Saha, S., et al., (2002) Nat Biotechnol 20, 508-512; herein incorporated by reference in its entirety) were constructed from single olfactory neurons as well as neurons from the vomeronasal organ and genes were collected that are expressed by these neurons. To identify candidate genes expressed by the olfactory neurons Digital Differential Display (see, e.g., http://www, followed by, .ncbi.nlm.nih.gov/UniGene/info_ddd.shtml) was also used. Candidate genes were investigated for ORFs that encode membrane associated proteins. Genes were selected with similarities to known chaperones and cloned the cDNAs from olfactory epithelium cDNAs. The mRNA expression of each gene was verified by in situ hybridization. After isolating and subcloning into mammalian expression vectors, each cDNA together with a mouse OR (MOR203-1) tagged with a 20 N-terminal amino acids of rhodopsin (Rho-tag), was transfected into 293T cells. We measured whether these clones had any effect on the cell-surface expression of ORs by staining living cells using antibodies against the Rho-tag (see, e.g., Laird, D. W., and Molday, R. S. (1988) Invest Opthalmol Vis Sci 29, 419-428; herein incorporated by reference in its entirety). When MOR203-1 was transfected alone, antibody staining detected only faint cell-surface expression in less than 1% of the cells. A schematic diagram outlining the screening procedure utilized with the present invention is provided at FIG. 1.
293T cells were maintained in minimal essential medium containing 10% fetal bovine serum (M10). Lipofectamine 2000 (Invitrogen) was used for transfection. In live-cell staining, 16 hours after transfection, cells were incubated in M10 containing anti rhodopsin antibody, 4D2 (see, e.g., Laird, D. W., and Molday, R. S. (1988) Invest Opthalmol V is Sci 29, 419-428; herein incorporated by reference in its entirety) and 15 mM NaN3 at 4 degrees C. for 1 hour. After washing, cells were incubated with Cy3-conjugated anti mouse IgG (Jackson Immunologicals), washed and mounted. For FACS analysis, 4D2 and PE-conjugated anti mouse IgG (Jackson Immunologicals) were used to monitor the Rho tagged receptor expression. Anti HA rabbit antibodies (Sigma) and Alexa 488 conjugated anti rabbit IgG (Molecular Probes) was used to stain the HA-β2 adrenergic receptor. To establish the Hana3a cells, 1 ug/ml of puromycin was used for selection. 96 colonies were picked and assayed using luciferase assay using OREG.

MOR203-1 [3] = assay: Co-immunoprecipitation with HA-tagged MOR203-1; format: binding, mouse; settings: Flag-tagged protein, 293T cells, HA-MOR203-1 precipitated
Description: Given the ability of REEP and/or RTP to promote cell-surface expression of ORs, it was hypothesized that they may also interact with OR proteins. This was assessed using co-immunoprecipitation assays. HA-tagged MOR203-1 and Flag-tagged REEP1, RTP1 or ICAP-1, a negative control (see, e.g., Zawistowski, J. S., et al. (2002) Hum Mol Genet. 11, 389-396; herein incorporated by reference in its entirety) were transfected in 293T cells. After the cell extracts were precipitated with anti-Flag antibodies, proteins were eluted in SDS-sample buffer at room temperature whereupon western blotting analysis was performed to detect the OR proteins. OR proteins were detected as high molecular weight bands after precipitation of REEP1 or RTP1 (see FIG. 7B, lanes 1 and 2). […] The present invention is not limited to a particular mechanism. Indeed, an understanding of the mechanism is not necessary to practice the present invention.
293T cells in 100 mm dishes were transfected with ORs, REEP1, and/or RTP1 cDNAs. 16 hours after transfection, cells were lysed in lysis buffer (50 mM Tris (7.4), 150 mM NaCl, 1% NP-40, 0.5 mM PMSF, 2 mM Benzamidene, 0.5 ug/ml Leupeptin, 1.4 ug/ml pepstatin A, 2.4 ug/ml chymostatin, 15 ug/ml aprotinin, 1 mM sodium orthovanadate). The lysis were incubated with anti-Flag M2 affinity gel (Sigma) or anti-HA affinity matrix (Roche) for 2 hours at 4 degrees C. and washed with lysis buffer. Subsequently, the bound proteins were eluted by incubation with SDS sample buffer at room temperature for 2 hours. SDS-PAGE and western blotting were performed according to Mini-Protean 3 Cell (Bio-Rad) instruction manual. ECL (Amersham) was used for detecting proteins on membranes.

B1: REEP1: Receptor Expression Enhancing Protein 1; murine SEQ ID NO: 21, human SEQ ID NO: 27 (protein, listed as Mus musculus)
chain: MVSWIISRLVVLIFGTLYPAYYSYKAVKSKDIKEYVKWMMYWIIFALFTTAETFTDIFLCWFPFYYELKIAFVAWLLSPYTKGSSLLYRKFVHPTLSSKEKEIDDCLVQAKDRSYDALVHFGKRGLNVAATAAVMAASKGQGALSERLRSFSMQDLTTIRGDGAPAPSGPPPPGTGRSSGKHSQPKMSRSASESAGSSGTA
- OREG activity by luciferase, accessory protein co-expressed [1]: enhanced luciferase activities compared to OR alone
- cell surface expression of MOR203-1 (MOR203-1 [2]): enhanced both the number and staining intensity of cell surface expression
- co-precipitation with HA-MOR203-1 (MOR203-1 [3]): co-precipitated

B2: RTP1: Receptor Transporting Protein 1; murine SEQ ID NO: 33, human SEQ ID NO: 37 (protein, listed as Mus musculus)
chain: MRIFRPWRLRCPALHLPSFPTFSIKCSLPPLPTDEDMCKSVTTGEWKKVFYEKMEEVKPADSWDFIIDPNLKHNVLAPGWKQYLELHASGRFHCSWCWHTWQSPHVVILFHMYLDKAQRAGSVRMRVFKQLCYECGTARLDESSMLEENIESLVDNLITSLREQCYGERGGHYRIHVASRQDNRRHRGEFCEACQEGIVHWKPSEKLLEEEATTYTFSRAPSPTKPQAETGSGCNFCSIPWCLFWATVLMLIIYLQFSFRTSV
- OREG activity by luciferase, accessory protein co-expressed [1]: enhanced luciferase activities compared to OR alone
- cell surface expression of MOR203-1 (MOR203-1 [2]): enhanced both the number and staining intensity of cell surface expression
- co-precipitation with HA-MOR203-1 (MOR203-1 [3]): co-precipitated
